Publication PMC8236860, “Regulation of Dual Activity of Ascorbate Peroxidase 1 From Arabidopsis thaliana by Conformational Changes and Posttranslational Modifications” (Frontiers in Plant Science, 2021)

Target: the molecule itself
Experiment: native gel or EMSA; 10% native-PAGE of purified recombinant AtAPX1 (total protein, SEC fractions F1-F3, and protein treated with GSNO, NaHS or SIN-1)

B1: Cytosol type APX1 from Arabidopsis thaliana (AtAPX1), recombinant (enzyme, UniProt Q05431 1-250, looked up)
chain: MTKNYPTVSEDYKKAVEKCRRKLRGLIAEKNCAPIMVRLAWHSAGTFDCQSRTGGPFGTMRFDAEQAHGANSGIHIALRLLDPIREQFPTISFADFHQLAGVVAVEVTGGPDIPFHPGREDKPQPPPEGRLPDATKGCDHLRDVFAKQMGLSDKDIVALSGAHTLGRCHKDRSGFEGAWTSNPLIFDNSYFKELLSGEKEGLLQLVSDKALLDDPVFRPLVEKYAADEDAFFADYAEAHMKLSELGFADA
notes: Ascorbate peroxidase 1, cytosolic (AtAPX1), Arabidopsis thaliana; 27 kDa on SDS-PAGE; Heme enzyme; also called ascorbate peroxidase 1; recombinant AtAPX1 protein; source: E. coli BL21 (DE3), pET28a, purified (Ni-NTA, thrombin cleavage of the His-tag, SEC)
  stoichiometry N: 2

B2: S-sulfhydrated recombinant AtAPX1 (NaHS-treated) (enzyme, Arabidopsis thaliana, UniProt Q05431 1-250, looked up)
chain: B1 chain
modifications: S-sulfhydration of cysteine (NaHS treatment); positions not determined in this paper
notes: Ascorbate peroxidase 1, cytosolic (AtAPX1), Arabidopsis thaliana; same construct as m1; not mapped here; also called NaHS-treated AtAPX1; source: E. coli BL21 (DE3), purified, then incubated with NaHS (10 nM-100 μM) at 4°C for 30 min in the dark
  binding result: binds

B3: Tyrosine-nitrated recombinant AtAPX1 (SIN-1-treated) (enzyme, Arabidopsis thaliana, UniProt Q05431 1-250, looked up)
chain: B1 chain
modifications: tyrosine nitration (SIN-1 treatment); positions not determined in this paper
notes: Ascorbate peroxidase 1, cytosolic (AtAPX1), Arabidopsis thaliana; same construct as m1; also called SIN-1-treated protein; source: E. coli BL21 (DE3), purified, then incubated with SIN-1 (0-10 mM) at 37°C for 1 h in the dark
  binding result: binds

B4: S-nitrosylated recombinant AtAPX1 (GSNO-treated) (enzyme, Arabidopsis thaliana, UniProt Q05431 1-250, looked up)
chain: B1 chain
modifications: S-nitrosylation of cysteine (GSNO treatment); positions not determined in this paper
notes: Ascorbate peroxidase 1, cytosolic (AtAPX1), Arabidopsis thaliana; same construct as m1; not mapped here; also called S-nitrosylated APX1; GSNO-treated AtAPX1; source: E. coli BL21 (DE3), purified, then incubated with GSNO (0-1 mM) at 25°C for 30 min in the dark
  binding result: binds
